One test deals with T1, DRB1*0101 (DR1) (Homo sapiens, UniProt P01903+P01911, A100R/D57E/F55L/F60I/F76Y/I96L/L162R/M171V/P40L/Q125E/R42F/V115G/Y59C).
T1 construct: endogenous in cells; host or cells: LG2
Put plainly: HLA class II peptide binding assay. Conditions: for DR1 binding data: Table XIXb, Malaria Super Motif Peptides With Binding Data.

Another test has as its target T2, DRB1*0802 (DR8w2) (Homo sapiens, UniProt P01903+P01911, A100R/A103L/A169T/F76Y/H45Y/I96F/K41T/L162R/M171V/P40S/Q125H/Q178H/Q39Y/Q99D/R218S/R42G/S66Y/V115G/W38E).
T2 construct: endogenous in cells; host or cells: OLL
The test can be described thus: biochemical. It is filed as binding.

The next test deals with T3, DRB1*0301 (DR3) (Homo sapiens, UniProt P01903+P01911, A100K/A102G/A103R/A169T/F55Y/I96L/K41T/L162R/M171V/P40S/Q125H/Q178H/Q39Y/R42S/S66N/T106N/T262R/W38E/Y61H).
T3 construct: endogenous in cells; host or cells: MAT
Put plainly: HLA class II peptide binding assay (pH 4.5). Conditions: for Alleles bound (DR3): binding to DR3, Table XXXIV; for DR3 binding data: Table XIXb.

The target in a further test is T4, DRB1*0701 (DR7) (Homo sapiens, UniProt P01903+P01911, A100R/A102G/A103Q/D57E/D86V/E43K/F76Y/K127E/L162R/M171V/P40G/Q125H/Q99D/R33Q/R42Y/R54Q/S133A/S66F/T210M/V115G/Y107V/Y59L/Y89S).
T4 construct: endogenous in cells; host or cells: Pitout
Put plainly: biochemical. It counts as binding.

The next test deals with T5, DRB1*0901 (DR9) (Homo sapiens, UniProt P01903+P01911, A100R/A103E/D57H/D86V/F55Y/F60I/F76Y/I96F/K127E/L162R/M171V/P40D/Q125H/Q99R/R33Q/R42F/S133A/S66N/T210M/V115G/W38K/Y107V/Y59G/Y89S).
T5 construct: endogenous in cells; host or cells: HID
The test can be described thus: biochemical. It is filed as binding.

Another test has as its target T6, DRB1*1302 (DR6w19) (Homo sapiens, UniProt P01903+P01911, A100E/A169T/K41T/L162R/M171V/P40S/Q125H/Q178H/Q39Y/Q99D/R42S/S66N/T262R/V115G/W38E/Y61H).
T6 construct: endogenous in cells; host or cells: H0301
The test can be described thus: HLA class II peptide binding assay. The settings on record: for DR6w19 binding data: Table XIXb.

Another test has as its target T7, DRB1*1501 (DR2w2β1) (Homo sapiens, UniProt P01903+P01911).
T7 construct: expressed in transfected cells; host or cells: L466.1 (fibroblasts)
Put plainly: HLA class II peptide binding assay. Conditions: for DR2w2β1 binding data: Table XIXb.

A further test addresses T8, DRB1*1101 (DR5w11) (Homo sapiens, UniProt P01903+P01911, A100R/A169T/A87E/I96F/K41T/L162R/M171V/P40S/Q125H/Q178H/Q39Y/Q99D/R42S/S66Y/T262R/V115G/W38E).
T8 construct: endogenous in cells; host or cells: Sweig
Put plainly: biochemical. It counts as binding.

The next test has as its target T9, DRB5*0101 (DR2w2β2) (Homo sapiens, UniProt P01903+Q30154).
T9 construct: expressed in transfected cells; host or cells: L416.3 (fibroblasts) or GM3107
It counts as binding.

A further test addresses T10, DRB1*1201 (DR5w12) (Homo sapiens, UniProt P01903+P01911, A100R/A169T/D57E/D86V/F55L/H45Y/K41T/L162R/M171V/P40S/Q125H/Q178H/Q39Y/Q99D/R42G/S66L/T262R/V114A/V67L/W38E/Y59H/Y61H/Y89S).
T10 construct: endogenous in cells; host or cells: Herluf
The test can be described thus: HLA class II peptide binding assay. The settings on record: Table XIXb; DR5w12.

For another test, the target named is T11, DRB1*0401 (DR4w4) (Homo sapiens, UniProt P01903+P01911, A100K/A169T/F76Y/I96L/K127E/L162R/M171V/N62H/P40V/Q125Y/R42H/S133A/S149N/S66Y/V115G/V209L/W38E).
T11 construct: endogenous in cells; host or cells: Preiss
T11 sequence (P01903 26-254 partner, other chains not shown): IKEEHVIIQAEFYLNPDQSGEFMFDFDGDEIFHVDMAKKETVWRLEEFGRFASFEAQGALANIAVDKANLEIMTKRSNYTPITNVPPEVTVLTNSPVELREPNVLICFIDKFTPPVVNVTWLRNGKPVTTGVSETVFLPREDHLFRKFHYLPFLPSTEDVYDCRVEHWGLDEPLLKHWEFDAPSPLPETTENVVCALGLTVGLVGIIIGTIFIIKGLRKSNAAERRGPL
Put plainly: HLA class II peptide binding assay. Conditions: Table XIXb; DR4w4.

A further test deals with T12, DRB1*0405 (DR4w15) (Homo sapiens, UniProt P01903+P01911, A100R/A169T/D86S/F76Y/I96L/K127E/L162R/M171V/N62H/P40V/Q125Y/R42H/S133A/S149N/S66Y/V115G/V209L/W38E).
T12 construct: endogenous in cells; host or cells: KT3
Put plainly: HLA class II peptide binding assay. The settings on record: Table XIXb; DR4w15.

The target in the next test is T13, DRB4*0101 (DRw53) (Homo sapiens, UniProt P01903+P13762, G164S).
T13 construct: expressed in transfected cells; host or cells: L257.6 (fibroblasts)
The test can be described thus: HLA class II peptide binding assay (pH 5.0). Conditions: Table XIXb; DRw53.

Like-named read-outs stand apart in the source and are kept apart here. No end group written: not given here.

T6 sequence (P01903 26-254, other chains not shown): as the sequence (P01903 26-254 partner, other chains not shown) above
T1 sequence (P01903 26-254 partner, other chains not shown): as above
T8 sequence (P01903 26-254, other chains not shown): as the sequence (P01903 26-254 partner, other chains not shown) above

Consider `CC(C)C[C@H](NC(=O)[C@H](CC(N)=O)NC(=O)[C@H](CS)NC(=O)[C@@H](N)CCCCN)C(=O)N[C@@H](Cc1ccc(O)cc1)C(=O)N[C@@H](C)C(=O)N[C@@H](CC(=O)O)C(=O)N[C@@H](CO)C(=O)N[C@@H](C)C(=O)N[C@@H](Cc1c[nH]c2ccccc12)C(=O)N[C@@H](CCC(=O)O)C(=O)N[C@@H](CC(N)=O)C(=O)N[C@H](C(=O)N[C@@H](CCCCN)C(=O)N[C@@H](CC(N)=O)C(=O)O)C(C)C` [Peptide 35.0172], for which the half-maximal inhibitory concentration (IC50) on DRB1*0101 (DR1) is 23400 nM; at DRB1*0802 (DR8w2), above 20 µM; on DRB1*0301 (DR3), 0.857 µM; against DRB1*0701 (DR7) it was above 20 µM; on DRB1*0901 (DR9), above 20 µM; at DRB1*1302 (DR6w19), 11.1 µM. In addition, the results for the IC50 on DRB1*1501 (DR2w2β1) and against DRB1*1101 (DR5w11) were 18.2 µM and above 20 µM, respectively. In addition, the “Alleles bound (DR3)” value on DRB1*0301 (DR3) is recorded as “DR3”.

On to LAILSVSSF, for which the DR1 binding data with DRB1*0101 (DR1) (DR1) is 0.1000. The same compound returned a DR8w2 binding data with DRB1*0802 (DR8w2) of 0.0013. In addition, in the test with DRB1*0301 (DR3), the DR3 binding data is on record as -0.0043. Further, the DR2w2β2 binding data with DRB5*0101 (DR2w2β2) is listed as 0.0130. Further, the DR7 binding data with DRB1*0701 (DR7) worked out at 0.0500. In addition, in the test with DRB1*1201 (DR5w12), the DR5w12 binding data came to 0.1200. This compound had a DR9 binding data with DRB1*0901 (DR9) of 0.1100. In addition, in the test with DRB1*0401 (DR4w4), the DR4w4 binding data is listed as 0.0078. In addition, the DR6w19 binding data with DRB1*1302 (DR6w19) came out at 0.0930. The same compound returned a DR2w2β1 binding data with DRB1*1501 (DR2w2β1) of 0.5000. In addition, the DR5w11 binding data with DRB1*1101 (DR5w11) is 0.0370. The compound also had a DR4w15 binding data in the test with DRB1*0405 (DR4w15) of 0.0270.

As to LALFFIIFN, the DR1 binding data with DRB1*0101 (DR1) (DR1) came out at 0.0006. In the test with DRB1*0802 (DR8w2), the DR8w2 binding data is given as -0.0007. In addition, the DR3 binding data in the test with DRB1*0301 (DR3) is on record as -0.0043. This compound also gave a DR2w2β2 binding data with DRB5*0101 (DR2w2β2) of -0.0021. The compound also showed a DR7 binding data with DRB1*0701 (DR7) of 0.0056. This compound displayed a DR5w12 binding data in the test with DRB1*1201 (DR5w12) of 0.0002. The compound also returned a DR9 binding data with DRB1*0901 (DR9) of -0.0018. The compound also had a DR4w4 binding data with DRB1*0401 (DR4w4) of 0.0047. In addition, the DR6w19 binding data in the test with DRB1*1302 (DR6w19) is given as -0.0002. Besides, the DR2w2β1 binding data with DRB1*1501 (DR2w2β1) is reported as 0.0180. In addition, the DR5w11 binding data with DRB1*1101 (DR5w11) is on record as -0.0005. The DR4w15 binding data in the test with DRB1*0405 (DR4w15) was 0.0100.

Take LGNVSTVLL: the DR1 binding data with DRB1*0101 (DR1) (DR1) was 0.0430. In the test with DRB1*0802 (DR8w2), this compound returned a DR8w2 binding data of 0.0012. Further, the DR3 binding data with DRB1*0301 (DR3) is on record as 0.0059. Also, in the test with DRB5*0101 (DR2w2β2), the DR2w2β2 binding data worked out at 0.0013. In the test with DRB1*0701 (DR7), this compound showed a DR7 binding data of 0.4300. In the test with DRB1*1201 (DR5w12), the DR5w12 binding data stood at 0.0001. Moreover, the DR9 binding data with DRB1*0901 (DR9) is on record as 0.5300. This compound returned a DR4w4 binding data with DRB1*0401 (DR4w4) of 0.0065. In the test with DRB1*1501 (DR2w2β1), this compound registered a DR2w2β1 binding data of 0.0240. For the same compound, the DR5w11 binding data with DRB1*1101 (DR5w11) was 0.0005. This compound also returned a DR4w15 binding data in the test with DRB1*0405 (DR4w15) of 0.0360.

As for PDSIQDSLKESRKLN [Peptide 35.0171], the IC50 is above 20000 nM on DRB1*0101 (DR1) (read-out: Binding capacity (IC50 nM) DR1, DR1); above 20 µM at DRB1*0802 (DR8w2); above 20 µM on DRB1*0701 (DR7); above 20 µM against DRB1*0901 (DR9); above 20 µM at DRB1*1302 (DR6w19); 2.29 µM on DRB1*1501 (DR2w2β1). This compound also gave an IC50 at DRB1*1101 (DR5w11) above 20 µM. Further, at DRB1*0301 (DR3), the “Alleles bound (DR3)” value is reported as “DR3”.

In turn, VHDLISDMI registered a DR1 binding data with DRB1*0101 (DR1) (DR1) of 0.0130. The same compound came in with a DR8w2 binding data in the test with DRB1*0802 (DR8w2) of 0.0096. For the same compound, in the test with DRB1*0301 (DR3), the DR3 binding data was 0.0100. In the test with DRB5*0101 (DR2w2β2), the DR2w2β2 binding data amounted to 0.0061. In the test with DRB1*0701 (DR7), the DR7 binding data came to 0.0100. The DR5w12 binding data with DRB1*1201 (DR5w12) is listed as 0.0001. The DR9 binding data in the test with DRB1*0901 (DR9) is 0.0430. For the same compound, the DR4w4 binding data in the test with DRB1*0401 (DR4w4) stood at 0.0310. The same compound came in with a DR6w19 binding data with DRB1*1302 (DR6w19) of 0.0004. In the test with DRB1*1101 (DR5w11), this compound returned a DR5w11 binding data of 0.0037. The compound further had a DRw53 binding data with DRB4*0101 (DRw53) of 0.0940. This compound also came in with a DR4w15 binding data with DRB1*0405 (DR4w15) of 0.0075.

Compound VNHAVPLAM displayed a DR8w2 binding data with DRB1*0802 (DR8w2) of 0.200. Besides, in the test with DRB1*0301 (DR3), the DR3 binding data is 0.2300. For the same compound, the DR9 binding data in the test with DRB1*0901 (DR9) turned out to be 4.000. For the same compound, the DR4w4 binding data with DRB1*0401 (DR4w4) stood at 3.900. Besides, in the test with DRB1*0405 (DR4w15), the DR4w15 binding data worked out at 0.0400.

As a reminder, the IC50 is the concentration that inhibits the measured activity by half.
